{
  "source": "patent US20030166036A1",
  "about": "“Protease and an aminopeptidase associated with development of benign prostatic hyperplasia (BPH)” (priority 2001, published 2003)",
  "molecules": {"B1": {"name": "LysC: lysyl endopeptidase C (Wako), commercial protease with wide specificity for lysine residues, used to cleave PSA in vitro (protein)", "chain": "GVSGSCNIDVVCPEGDGRRDIIRAVGAYSKSGTLACTGSLVNNTANDRKMYFLTAHHCGMGTASTAASIVVYWNYQNSTCRAPNTPASGANGDGSMSQTQSGSTVKATYATSDFTLLELNNAANPAFNLFWAGWDRRDQNYPGAIAIHHPNVAEKRISNSTSPTSFVAWGGGAGTTHLNVQWQPSGGVTEPGSSGSPIYSPEKRVLGQLHGGPSSCSATGTNRSDQYGRVFTSWTGGGAAASRLSDWLDPASTGAQFIDGLDSGGGTP"}},
  "key": {"proPSA": {"molecular_target": "T1, proPSA (Homo sapiens, UniProt P07288)", "T1 construct": "due to the altered folding in the zymogen form of PSA; made in house", "T1 sequence (P07288 18-261 limits assumed)": "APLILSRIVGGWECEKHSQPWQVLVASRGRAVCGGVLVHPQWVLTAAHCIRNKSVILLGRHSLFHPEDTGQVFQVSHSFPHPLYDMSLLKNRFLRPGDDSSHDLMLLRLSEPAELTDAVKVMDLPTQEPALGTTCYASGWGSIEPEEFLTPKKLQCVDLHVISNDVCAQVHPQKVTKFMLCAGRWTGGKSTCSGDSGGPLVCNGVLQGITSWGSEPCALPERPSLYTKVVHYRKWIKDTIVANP", "test": "Incubation of proPSA with lysyl endopeptidase C, cleavage followed by HIC-HPLC", "format": "biochemical", "details": "recombinant pPSA (zymogen), 0.1% LysC in PBS pH 7", "method": "(§1) High-performance hydrophobic interaction chromatography (HIC-HPLC) was performed using a polypropylaspartamide column (PolyLC, distributed by Western Analytical, Temecula, Calif.). The column was 4.6×250 mm in length with a 1000 Å pore size. Samples were applied in 1.5 M ammonium sulfate and eluted with a gradient. Buffers were prepared as follows. Buffer A consisted of 1.2 M sodium sulfate, 25 mM sodium phosphate, and a pH of 6.3, and Buffer B consisted of 50 mM sodium phosphate and 5% v/v 2-propanol. The gradient was 0-30% B for 1 minute, 30-60% B 10 minutes, followed by re-equilibration in Buffer A. High-sensitivity peak detection was obtained with a Varian Model 9070 (Varian Medical Systems, Palo Alto, Calif.) scanning fluorescence detector using an excitation of 232 nm and an emission of 334 nm to detect the tryptophan residues in protein.\nSamples of PSA and proPSA were incubated with 0.1% lysyl endopeptidase C (Wako Cemicals USA, Richmond, Va.) in PBS at pH 7 for the times indicated in the figures. […] The internal cleavage sites of the different HIC-HPLC peaks were determined by N-terminal sequencing.\nProPSA (pPSA) was also incubated with LysC to determine if there was any difference between the cleavage of the Lys145 and Lys182 sites due to the altered folding in the zymogen form of PSA. […] The cleavage of the Lys182 and Lys145 sites in pPSA was also monitored by HIC-HPLC. […]"}, "PSA": {"molecular_target": "T2, PSA (Homo sapiens, UniProt P07288)", "T2 construct": "Unlike the purified mature PSA, pPSA was isolated from a recombinant expression system; from tissue; host or cells: seminal plasma", "T2 sequence (P07288 25-261)": "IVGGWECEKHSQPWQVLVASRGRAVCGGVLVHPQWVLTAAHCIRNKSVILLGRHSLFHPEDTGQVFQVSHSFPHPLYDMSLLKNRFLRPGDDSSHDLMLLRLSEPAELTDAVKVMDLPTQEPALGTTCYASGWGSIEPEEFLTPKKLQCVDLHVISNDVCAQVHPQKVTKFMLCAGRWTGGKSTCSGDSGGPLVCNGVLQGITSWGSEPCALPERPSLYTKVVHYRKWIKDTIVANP", "test": "Incubation of PSA with lysyl endopeptidase C, cleavage followed by HIC-HPLC and N-terminal sequencing", "format": "biochemical", "method": "as §1\nN-terminal sequence analysis of the samples was performed on a PE-Applied Biosystems Model 492 amino acid sequencer (PE-Applied Biosystems, Foster City, Calif.). Purified PSA and peaks collected by HIC-HPLC were applied directly to Prosorb cartridges (PE-Applied Biosystems, Foster City, Calif.), washed three times with 0.1 ml 0.01% trifluoroacetic acid, and applied to the sequencer.\nSamples of PSA and proPSA were incubated with 0.1% lysyl endopeptidase C (Wako Cemicals USA, Richmond, Va.) in PBS at pH 7 for the times indicated in the figures. The LysC reaction was quenched by the addition of a 10-fold molar excess of aprotinin prior to analysis by HIC-HPLC. The internal cleavage sites of the different HIC-HPLC peaks were determined by N-terminal sequencing.\nWe also examined the digestion of PSA with LysC in vitro to determine the relative susceptibility of the Lys145 and Lys182 sites."}},
  "data": [
    {"molecule": "B1", "values": [
      {"measurement": "initial rate of cleavage of the Lys182", "setting": "proPSA", "value": 8, "unit": "% per minute"},
      {"measurement": "rate of cleavage at Lys145", "setting": "proPSA", "value": "about 0.6 % per minute"},
      {"measurement": "Lys182 cleaved more rapidly than Lys145", "setting": "PSA; PSA digested with LysC in vitro", "value": "approximately 30 times"},
      {"measurement": "PSA cleaved at Lys182", "setting": "PSA; after 30 minutes of incubation with LysC", "value": 100, "unit": "%"},
      {"measurement": "initial rate of cleavage at Lys182", "setting": "PSA; mature PSA purified from seminal plasma, 0.1% LysC in PBS pH 7", "value": 12, "unit": "% per minute"},
      {"measurement": "rate of cleavage at Lys145", "setting": "PSA; mature PSA, 0.1% LysC in PBS pH 7, based on time points greater than 30 minutes", "value": 0.3, "unit": "% per minute"}
    ]}
  ]
}
